The source of these data is article PMC8581553 (Cell reports, 2021).

To fix the notation:
B4: HA-SNAP-GluK3 (receptor, rat, UniProt P42264 32-919, looked up)
chain: MPHVIRIGGIFEYADGPNAQVMNAEEHAFRFSANIINRNRTLLPNTTLTYDIQRIHFHDSFEATKKACDQLALGVVAIFGPSQGSCTNAVQSICNALEVPHIQLRWKHHPLDNKDTFYVNLYPDYASLSHAILDLVQSLKWRSATVVYDDSTGLIRLQELIMAPSRYNIRLKIRQLPIDSDDSRPLLKEMKRGREFRIIFDCSHTMAAQILKQAMAMGMMTEYYHFIFTTLDLYALDLEPYRYSGVNLTGFRILNVDNAHVSAIVEKWSMERLQAAPRAESGLLDGVMMTDAALLYDAVHIVSVCYQRASQMTVNSLQCHRHKPWRFGGRFMNFIKEAQWEGLTGRIVFNKTSGLRTDFDLDIISLKEDGLEKVGVWSPADGLNITEVAKGRGPNVTDSLTNRSLIVTTLLEEPFVMFRKSDRTLYGNDRFEGYCIDLLKELAHILGFSYEIRLVEDGKYGAQDDKGQWNGMVKELIDHKADLAVAPLTITHVREKAIDFSKPFMTLGVSILYRKPNGTNPSVFSFLNPLSPDIWMYVLLAYLGVSCVLFVIARFSPYEWYDAHPCNPGSEVVENNFTLLNSFWFGMGSLMQQGSELMPKALSTRIIGGIWWFFTLIIISSYTANLAAFLTVERMESPIDSADDLAKQTKIEYGAVKDGATMTFFKKSKISTFEKMWAFMSSKPSALVKNNEEGIQRTLTADYALLMESTTIEYITQRNCNLTQIGGLIDSKGYGIGTPMGSPYRDKITIAILQLQEEDKLHIMKEKWWRGSGCPEEENKEASALGIQKIGGIFIVLAAGLVLSVLVAVGEFIYKLRKTAEREQRSFCSTVADEIRFSLTCQRRLKHKPQPPMMVKTDAVINMHTFNDRRLPGKDSMSCSTSLAPVFP
modifications: SNAP tag labelled with SBG-OG (Oregon Green)

Series [1] deals with the molecule itself. The series is described as follows: single-molecule pull-down.
For series [2], the target named is B4. The series is described as follows: single-molecule pull-down.

B1: HA-SNAP-GluK2 (receptor, rat, UniProt P42260 32-908, looked up)
chain: TTHVLRFGGIFEYVESGPMGAEELAFRFAVNTINRNRTLLPNTTLTYDTQKINLYDSFEASKKACDQLSLGVAAIFGPSHSSSANAVQSICNALGVPHIQTRWKHQVSDNKDSFYVSLYPDFSSLSRAILDLVQFFKWKTVTVVYDDSTGLIRLQELIKAPSRYNLRLKIRQLPADTKDAKPLLKEMKRGKEFHVIFDCSHEMAAGILKQALAMGMMTEYYHYIFTTLDLFALDVEPYRYSGVNMTGFRILNTENTQVSSIIEKWSMERLQAPPKPDSGLLDGFMTTDAALMYDAVHVVSVAVQQFPQMTVSSLQCNRHKPWRFGTRFMSLIKEAHWEGLTGRITFNKTNGLRTDFDLDVISLKEEGLEKIGTWDPASGLNMTESQKGKPANITDSLSNRSLIVTTILEEPYVLFKKSDKPLYGNDRFEGYCIDLLRELSTILGFTYEIRLVEDGKYGAQDDVNGQWNGMVRELIDHKADLAVAPLAITYVREKVIDFSKPFMTLGISILYRKPNGTNPGVFSFLNPLSPDIWMYILLAYLGVSCVLFVIARFSPYEWYNPHPCNPDSDVVENNFTLLNSFWFGVGALMQQGSELMPKALSTRIVGGIWWFFTLIIISSYTANLAAFLTVERMESPIDSADDLAKQTKIEYGAVEDGATMTFFKKSKISTYDKMWAFMSSRRQSVLVKSNEEGIQRVLTSDYAFLMESTTIEFVTQRNCNLTQIGGLIDSKGYGVGTPMGSPYRDKITIAILQLQEEGKLHMMKEKWWRGNGCPEEESKEASALGVQNIGGIFIVLAAGLVLSVFVAVGEFLYKSKKNAQLEKRSFCSAMVEELRMSLKCQRRLKHKPQAPVIVKTEEVINMHTFNDRRLPGKETMA
modifications: SNAP tag labelled with SBG-OG (Oregon Green); for smFRET with BG-LD555 and BG-LD655
As a reminder, the stoichiometry N is the number of molecules, sites or subunits per partner or assembly. Consider B1, for which, in series [1], the “stoichiometry N” value came to 4.

B2: Halo-GluK5 (receptor, rat, UniProt Q63273 15-979, looked up)
chain: NPSCQVLSSLRMAAILDDQTVCGRGERLALALAREQINGIIEVPAKARVEVDIFELQRDSQYETTDTMCQILPKGVVSVLGPSSSPASASTVSHICGEKEIPHIKVGPEETPRLQYLRFASVSLYPSNEDVSLAVSRILKSFNYPSASLICAKAECLLRLEELVRGFLISKETLSVRMLDDSRDPTPLLKEIRDDKVSTIIIDANASISHLVLRKASELGMTSAFYKYILTTMDFPILHLDGIVEDSSNILGFSMFNTSHPFYPEFVRSLNMSWRENCEASTYPGPALSAALMFDAVHVVVSAVRELNRSQEIGVKPLACTSANIWPHGTSLMNYLRMVEYDGLTGRVEFNSKGQRTNYTLRILEKSRQGHREIGVWYSNRTLAMNATTLDINLSQTLANKTLVVTTILENPYVMRRPNFQALSGNERFEGFCVDMLRELAELLRFRYRLRLVEDGLYGAPEPNGSWTGMVGELINRKADLAVAAFTITAEREKVIDFSKPFMTLGISILYRVHMGRKPGYFSFLDPFSPAVWLFMLLAYLAVSCVLFLAARLSPYEWYNPHPCLRARPHILENQYTLGNSLWFPVGGFMQQGSEIMPRALSTRCVSGVWWAFTLIIISSYTANLAAFLTVQRMEVPVESADDLADQTNIEYGTIHAGSTMTFFQNSRYQTYQRMWNYMQSKQPSVFVKSTEEGIARVLNSRYAFLLESTMNEYHRRLNCNLTQIGGLLDTKGYGIGMPLGSPFRDEITLAILQLQENNRLEILKRKWWEGGRCPKEEDHRAKGLGMENIGGIFVVLICGLIIAVFVAVMEFIWSTRRSAESEEVSVCQEMLQELRHAVSCRKTSRSRRRRRPGGPSRALLSLRAVREMRLSNGKLYSAGAGGDAGAHGGPQRLLDDPGPPGGPRPQAPTPCTHVRVCQECRRIQALRASGAGAPPRGLGTPAEATSPPRPRPGPTGPRELTEHE
modifications: Halo tag labelled with CA-Sulfo549 (two-colour) or CA-Sulfo646 (three-colour)
For B2, the “stoichiometry N” value in series [2] is ≤ 2 GluK5 subunits in a di-heteromer.

B3: HA-SNAP-GluK1 (receptor, rat, UniProt P22756 31-949, looked up)
chain: QTSPQVLRIGGIFETVENEPVNVEELAFKFAVTSINRNRTLMPNTTLTYDIQRINLFDSFEASRRACDQLALGVAALFGPSHSSSVSAVQSICNALEVPHIQTRWKHPSVDSRDLFYINLYPDYAAISRAVLDLVLYYNWKTVTVVYEDSTGLIRLQELIKAPSRYNIKIKIRQLPPANKDAKPLLKEMKKSKEFYVIFDCSHETAAEILKQILFMGMMTEYYHYFFTTLDLFALDLELYRYSGVNMTGFRKLNIDNPHVSSIIEKWSMERLQAPPRPETGLLDGMMTTEAALMYDAVYMVAIASHRASQLTVSSLQCHRHKPCALGPRFMNLIKEARWDGLTGRITFNKTDGLRKDFDLDIISLKEEGTEKASGEVSKHLYKVWKKIGIWNSNSGLNMTDGNRDRSNNITDSLANRTLIVTTILEEPYVMYRKSDKPLYGNDRFEAYCLDLLKELSNILGFLYDVKLVPDGKYGAQNDKGEWNGMVKELIDHRADLAVAPLTITYVREKVIDFSKPFMTLGISILYRKPNGTNPGVFSFLNPLSPDIWMYVLLACLGVSCVLFVIARFTPYEWYNPHPCNPDSDVVENNFTLLNSFWFGVGALMQQGSELMPKALSTRIVGGIWWFFTLIIISSYTANLAAFLTVERMESPIDSADDLAKQTKIEYGAVRDGSTMTFFKKSKISTYEKMWAFMSSRQQSALVKNSDEGIQRVLTTDYALLMESTSIEYVTQRNCNLTQIGGLIDSKGYGVGTPIGSPYRDKITIAILQLQEEGKLHMMKEKWWRGNGCPEEDSKEASALGVENIGGIFIVLAAGLVLSVFVAIGEFLYKSRKNNDVEQKGKSSRLRFYFRNKVRFHGSKKESLGVEKCLSFNAIMEELGISLKNQKKLKKKSRTKGKSSFTSILTCHQRRTQRKETVA
modifications: SNAP tag labelled with SBG-OG (Oregon Green); for smFRET with BG-LD555 and/or BG-LD655
As to B3, the “stoichiometry N” value in series [1] was found to be 4.

In the case of B4, the “stoichiometry N” value in series [1] amounted to 4.
